The text below walks through data of article PMC8060857.

In the experiment the target is HR-C1 peptide (SARS-CoV (Urbani strain)) (UniProt P59594). Nature of the experiment: SDS-PAGE of samples not heated.

“HR-C1 peptide (from UniProt P59594 1147-1185)” had a stoichiometry N of 3.

One may read the stoichiometry N as the number of molecules, sites or subunits per partner or assembly.
